Experimental data: the supplement of paper PMC12042874
± gives the uncertainty stated by the source.

assay: amyloid nucleation score (Sup35N fusion, yeast selection) (log enrichment); library NNK3; higher = more nucleation; inactive = no reads after selection
Summary of the method: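 Sup35N fusions to peptides of 20 random codons were expressed in psi-negative yeast, induced 24 hours with 100 μM copper sulfate, and grown 7 days at 30°C on medium lacking adenine and uracil. Input and output plasmid inserts were sequenced by Illumina. The nucleation score is the DiMSum log enrichment of output over input reads, centred on the mode score of non-aggregating sequences. Sequences with under 100 input reads were excluded.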

Amyloid nucleation score, 1.43 ± 0.14:
EFSYISVCRLQLLMHTKIWD

Amyloid nucleation score, 2.63 ± 0.055:
EWPVNTNVYFCFMYTANFNT

Amyloid nucleation score, 0.682 ± 0.26:
FAVTLNSWRARFRFMDRNDM

Amyloid nucleation score, 0.148 ± 0.78:
FATVYELAYYQGTYCKVRCS

Amyloid nucleation score, 0.231 ± 0.9:
FARFSIAFMH

Amyloid nucleation score, -0.281 ± 0.36:
FCFSYSYAYFCHIYGCGSNR

Amyloid nucleation score, 1.96 ± 0.077:
EYNPWFDCWICSEVSATNNR

Amyloid nucleation score, 2.99 ± 0.063:
EHCSGNFRLNLSCDEVHIWM

Amyloid nucleation score, 0.778 ± 0.2:
ECFEVEQGILDAHSNCWGNI

Amyloid nucleation score, -0.081 ± 0.5:
ESRSRLRNGTLFNCVIN

Amyloid nucleation score, 2.99 ± 0.067:
FCNCNMFYDLCLCAHGMPSA

Amyloid nucleation score, -0.077 ± 0.54:
EDQLL

Amyloid nucleation score, -0.291 ± 1.4:
DSSSWSHL

Amyloid nucleation score, -0.337 ± 0.9:
EYGALSTFLRG

Amyloid nucleation score, 2.7 ± 0.062:
DPHCQGFVWGSCMDVWYLSL

Amyloid nucleation score, 0.457 ± 0.2:
EGNCELCRLWYNWGRVAGNK

Amyloid nucleation score, 1.42 ± 0.081:
DVALCKYFGLNTIVNSFLAM

Amyloid nucleation score, -0.55 ± 2.4:
EFGFVNGNRAGWGYFQRRAL

Amyloid nucleation score, inactive:
DLGLNYFESSRDPDGSLLYL
DLHMIATMGECMHCEMHL
DLIRQRAETPKMVISWR
DLRALPKVFLMLDKYSIMSG
DLSIRKFHGGSMDSLNMEYM
DLSKTGTSNNLLFTERISDI
DMCEGYVNYCRMHRAMRHDD
DMIINILRSDYQWWSAN
DNCLNCNRCKCIYKDFWLSA
DNICIYWALDGIYECSRHSR
DNLQVTRCYLADWMSSVT
DNTQLSVCWSLSPDTVWKLG
DPFVRDIWQREYQWES
DPINNYSLFFKLCLELHFFA
DQGNPSNSSLDLPLGGSFGE
DQQCDDVWRRWDGYGRRKKR
DREST
DRFSYFAIFPWYRMCYGMLE
DRGRMCMNAFPFLCWIWFHG
DRQRWSRLCAGQSLYNCGKC
DRSIEVDAYSCAVGVYQGPV
DRTHDSSDSCGCCNNL
DRVKACARFGRW
DRVSFSITY
DSCKPCQKPTAIHVYMVEFP
DSCVPIYVDTYGGDLDVNGG
DSFAGVRLGVHASNILIHGQ
DSGLFKYSYGLWEKLLFYRM
DSICYHAFYMEEGGS
DSKVLSFSWAMFMLIM
DSLLDGYSHWAKWGSTRCVR
DSSFLATFFILVTGCCLLVD
DSSLYKDQYRVRSSGQFKRA
DSVVRTSQMSVGYMCVRAEF
DSWTAACAHSR
DSYIVYDKQDPS
DTTFMQYVAIYVLVSKLFIE
DVCRTQSFGVAKTVIFCFLF
DVMKICMKLSLHICTVHISS
DVMSILLTNVMLSKSALELS
DVNCALYGKGLDVCRI
DVNFWSLYKFCTRVDFGLSY
DVQCGVIMRGLDKYFDLNSA
DWATFNLIKAVYLRRCSCGL
DYGLHDRTYTSIYRVA
DYKMVRYWNLE
DYLLWESKGLVWKCMMTCCG
DYLVFFRPLFNSIDSHWIRS
DYTLDANFEGCHGQLTYMND
EAMPHLARGFVVFMCFFRSG
EASLSGGYTEYVGDFMRLVT
EAVYLSLYKECLCLVRVS
EAWIIMSRVGI
ECLLPKIAMHVKRMVPQFGT
ECRYIPLYREFTRRVSMSGL
ECSVSMCEKGITYRSVVERG
ECYIVWFLRLCSSGVYVYLR
EDERNSMCTKPIRDHRLSWM
EDGCRNVRLFTMVRSLMYK
EDLSVNNSAYVFPSLE
EDYRVGW
EEVMMRAINQEAPCEPQLRV
EEVSVA
EFALTIWCLGAALCIIKSLS
EFGVVVNEFYGDVY
EFVRVLRDISLVSGVMGYHY
EFWQFDRYVLSNTVSLFSGC
EGCSVRRTTHRAQVMRVGWM
EGFIVSRISAGDRSGDMEGC
EHFNPRNC
EHNNQLGIWSTYPCSNLSGH
EHNYVSTIGYSCRFEPGTRR
EIGFYCPSGAGGHRKDRVLR
EKCWFQVCCTRSLGKSGIIC
EKGIGYKLCMGQYAGS
EKQKSLFCVLMVGLFYVNV
EKSICWSNFIAWITIWPKGR
EKTWKDWTHLSGRKRMI
ELCEKMFRTIFCFKCRVCMN
ELCTVLIVRFSRGSERLKNE
ELFDWTFLFPDSSINMWK
ELGGFFNEAGVTNHPIMS
ELRELFQNCL
ELRSL
ELYMQMCYRRIGCV
ENWTDGM
EPYPM
EQSLFES
ERALPQGMDRWSWFRERSCH
ERIVPA
ERKVCAG
ERPSLVEW
ERRKIGLKLLRLRQNNGIMA
ESADATLREAKSSVYKKYRY
ESFESVYR
ESRLIISKDGRRSMSKHGGP
ESRSFCLNCQGWVSSEA
ESVCYLFCYSHYLGNYGYGS
ETHLDTLPVVYHLWLLHVLM
ETLGFVSMCHDSLMHNH
ETLWVKVYLTYLNMTRMSGY
ETNEGPH
ETQWFEI
ETYFAQWLNFL
EVFEWSVRLFSTL
EVFSDVY
EVKAMTWLVIVETIVFMS
EVLNCSR
EVQVFSFDTGCMHSHNLYAS
EVSWD
EYCKISD
EYDSYSKIYWHISLAVFILI
EYHKMTGIFAPLFILIMVV
EYLPEQPVCIVMSYTPKFPC
EYSLMVNSTIDYFGDSNICE
EYYDI
FAQFLG
FAYITHLKKYKSWTVPWTYY
FAYWWRTVTPVCSGLVRYCW
FCACLERQTSLNF
FCDAKYLRLRSCALISMPSV
FCFYRKKGVVGCILFYACFR
FCLLIRAVSPCLTSGRIILV
FCLVGIFTCRGTLNTLLALH
FCMALRKRNFGRFMSKSKEY
FCRPLSCRSIWCHLLPTHLR
FCRQGNILFY
FCVTQWRAQRASHLYFMPGE
FDERRSRGPSKSMKGLLTTY
FDERSF
FDLFFACFPSRETGLKSCKT
FDLLRSNYYSFRCVCEVIDR
FDLRSWCM
FDLTWSIVEHFHVWLLRFSF
FDMVFVLENRLYRSMANLSF

Amyloid nucleation score, -0.682 ± 1.1:
DYSFYTFPESAVLCTCSSYG

Amyloid nucleation score, 0.371 ± 0.74:
ELRCFTQIGLGSCYRFIGYI

Amyloid nucleation score, -0.501 ± 0.66:
DNRSL

Amyloid nucleation score, -0.561 ± 0.82:
ERSITGYNPPRRV
